Measurements published in the supplement of paper PMC10065799, “High-throughput profiling of sequence recognition by tyrosine kinases and SH2 domains using bacterial peptide display” (eLife, 2023).

Tests used:
AncSZ = assay: phosphorylation enrichment, bacterial display (enrichment ratio); higher = better substrate or ligand; peptides without Tyr show the background
EPHB1 = EPHB1 (UniProt P54762); assay: as above
EPHB2 = EPHB2 (UniProt P29323); assay: as above
FGFR1 = FGFR1 (UniProt P11362); assay: as above
FGFR3 = FGFR3 (UniProt P22607); assay: as above
Fer (mouse) = assay: as above
Fes = Fes (UniProt P07332); assay: as above
Fyn = Fyn (UniProt P06241); assay: as above
Hck = Hck (UniProt P08631); assay: as above
Jak2 = Jak2 (UniProt O60674); assay: as above
MERTK = MERTK (UniProt Q12866); assay: as above
c-Abl (mouse) = assay: as above
c-Src = assay: as above
Grb2 SH2 = Grb2 SH2 (UniProt P62993); assay: SH2 binding enrichment of the phosphorylated peptide, bacterial display (enrichment ratio); higher = better substrate or ligand; peptides without Tyr show the background
SHP2-C SH2 = assay: as above
c-Src SH2 = assay: as above
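Wherever SH2 binding enrichment of the phosphorylated peptide, bacterial display is given: peptide library displayed on the E. coli surface as eCPX fusions, selected cells deep-sequenced, score is each peptide's frequency after selection divided by its frequency in the input.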
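Wherever phosphorylation enrichment, bacterial display is given: 11-residue human phosphosite peptides and single-mutation variants displayed on the E. coli surface, counted by deep sequencing, each peptide's frequency after selection divided by its frequency in the unselected input library; frequency after pTyr selection over input frequency; kinase dosed for 20-30% of maximal phosphorylation in three min.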

Chain of Fyn (P06241 whole entry, looked up): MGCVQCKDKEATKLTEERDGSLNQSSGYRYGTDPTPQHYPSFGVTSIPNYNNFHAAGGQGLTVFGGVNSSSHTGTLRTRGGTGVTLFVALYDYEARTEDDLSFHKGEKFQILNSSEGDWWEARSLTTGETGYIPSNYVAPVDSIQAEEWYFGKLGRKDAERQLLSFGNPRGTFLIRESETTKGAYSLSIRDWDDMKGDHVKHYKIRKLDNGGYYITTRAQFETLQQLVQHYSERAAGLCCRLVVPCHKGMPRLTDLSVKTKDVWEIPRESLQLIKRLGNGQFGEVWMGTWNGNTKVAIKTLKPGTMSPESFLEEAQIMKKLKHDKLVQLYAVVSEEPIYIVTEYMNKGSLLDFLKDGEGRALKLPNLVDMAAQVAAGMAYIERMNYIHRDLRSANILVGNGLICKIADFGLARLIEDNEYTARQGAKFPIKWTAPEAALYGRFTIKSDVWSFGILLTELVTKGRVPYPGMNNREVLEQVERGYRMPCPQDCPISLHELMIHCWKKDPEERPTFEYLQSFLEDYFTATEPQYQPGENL
Chain of Grb2 SH2 (P62993 whole entry, looked up): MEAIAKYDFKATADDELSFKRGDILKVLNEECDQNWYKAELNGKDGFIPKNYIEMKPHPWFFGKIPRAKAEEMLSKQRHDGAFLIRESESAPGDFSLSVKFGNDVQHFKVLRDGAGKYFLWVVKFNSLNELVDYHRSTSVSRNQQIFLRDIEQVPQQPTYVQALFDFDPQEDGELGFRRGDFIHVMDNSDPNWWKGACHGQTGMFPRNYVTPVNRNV
Chain of FGFR3 (P22607 whole entry, looked up): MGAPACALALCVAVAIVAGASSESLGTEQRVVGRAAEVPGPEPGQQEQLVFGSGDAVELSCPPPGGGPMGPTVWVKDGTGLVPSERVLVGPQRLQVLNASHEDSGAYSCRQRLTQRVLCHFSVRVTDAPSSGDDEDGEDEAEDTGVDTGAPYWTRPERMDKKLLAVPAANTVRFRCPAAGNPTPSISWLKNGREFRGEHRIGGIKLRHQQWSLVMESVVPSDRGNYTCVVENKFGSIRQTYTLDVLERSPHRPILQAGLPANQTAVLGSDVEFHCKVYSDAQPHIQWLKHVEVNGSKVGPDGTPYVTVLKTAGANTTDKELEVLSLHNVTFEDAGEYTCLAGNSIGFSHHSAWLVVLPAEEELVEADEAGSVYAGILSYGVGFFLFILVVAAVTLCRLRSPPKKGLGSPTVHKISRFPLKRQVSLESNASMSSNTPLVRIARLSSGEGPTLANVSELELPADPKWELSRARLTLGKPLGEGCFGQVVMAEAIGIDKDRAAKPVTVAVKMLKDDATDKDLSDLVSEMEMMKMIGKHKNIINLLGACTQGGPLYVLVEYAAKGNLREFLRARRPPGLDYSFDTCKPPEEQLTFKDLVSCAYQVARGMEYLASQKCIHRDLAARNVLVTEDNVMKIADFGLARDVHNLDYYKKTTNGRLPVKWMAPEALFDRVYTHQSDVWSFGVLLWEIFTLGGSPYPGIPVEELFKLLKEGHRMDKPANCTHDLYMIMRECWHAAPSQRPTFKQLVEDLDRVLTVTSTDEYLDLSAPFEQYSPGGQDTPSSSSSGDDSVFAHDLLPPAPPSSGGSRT
Chain of MERTK (Q12866 whole entry, looked up): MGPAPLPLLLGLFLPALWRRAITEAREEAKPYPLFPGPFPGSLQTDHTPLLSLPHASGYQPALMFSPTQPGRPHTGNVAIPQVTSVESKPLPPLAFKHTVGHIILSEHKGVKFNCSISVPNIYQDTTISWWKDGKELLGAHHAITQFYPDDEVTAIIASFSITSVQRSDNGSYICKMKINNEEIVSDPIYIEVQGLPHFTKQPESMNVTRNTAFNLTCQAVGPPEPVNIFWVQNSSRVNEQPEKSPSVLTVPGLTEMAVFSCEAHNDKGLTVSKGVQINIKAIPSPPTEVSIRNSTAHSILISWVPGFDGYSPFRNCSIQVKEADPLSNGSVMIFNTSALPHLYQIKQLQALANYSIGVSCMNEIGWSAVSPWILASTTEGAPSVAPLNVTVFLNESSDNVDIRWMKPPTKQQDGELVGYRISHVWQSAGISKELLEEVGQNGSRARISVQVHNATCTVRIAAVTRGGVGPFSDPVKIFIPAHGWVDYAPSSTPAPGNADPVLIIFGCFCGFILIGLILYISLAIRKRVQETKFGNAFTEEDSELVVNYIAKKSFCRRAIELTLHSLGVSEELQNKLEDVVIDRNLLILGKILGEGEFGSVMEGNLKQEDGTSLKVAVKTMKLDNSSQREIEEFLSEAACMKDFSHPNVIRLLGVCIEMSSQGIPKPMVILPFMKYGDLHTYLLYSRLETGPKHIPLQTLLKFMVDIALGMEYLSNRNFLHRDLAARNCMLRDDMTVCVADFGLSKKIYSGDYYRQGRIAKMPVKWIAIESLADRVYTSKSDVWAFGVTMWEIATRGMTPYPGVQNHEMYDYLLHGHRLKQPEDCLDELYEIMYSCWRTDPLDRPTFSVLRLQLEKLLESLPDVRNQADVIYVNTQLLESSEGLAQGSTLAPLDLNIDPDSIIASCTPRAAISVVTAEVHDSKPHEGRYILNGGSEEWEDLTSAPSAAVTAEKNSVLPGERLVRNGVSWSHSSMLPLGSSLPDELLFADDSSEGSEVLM
Chain of Jak2 (O60674 whole entry, looked up): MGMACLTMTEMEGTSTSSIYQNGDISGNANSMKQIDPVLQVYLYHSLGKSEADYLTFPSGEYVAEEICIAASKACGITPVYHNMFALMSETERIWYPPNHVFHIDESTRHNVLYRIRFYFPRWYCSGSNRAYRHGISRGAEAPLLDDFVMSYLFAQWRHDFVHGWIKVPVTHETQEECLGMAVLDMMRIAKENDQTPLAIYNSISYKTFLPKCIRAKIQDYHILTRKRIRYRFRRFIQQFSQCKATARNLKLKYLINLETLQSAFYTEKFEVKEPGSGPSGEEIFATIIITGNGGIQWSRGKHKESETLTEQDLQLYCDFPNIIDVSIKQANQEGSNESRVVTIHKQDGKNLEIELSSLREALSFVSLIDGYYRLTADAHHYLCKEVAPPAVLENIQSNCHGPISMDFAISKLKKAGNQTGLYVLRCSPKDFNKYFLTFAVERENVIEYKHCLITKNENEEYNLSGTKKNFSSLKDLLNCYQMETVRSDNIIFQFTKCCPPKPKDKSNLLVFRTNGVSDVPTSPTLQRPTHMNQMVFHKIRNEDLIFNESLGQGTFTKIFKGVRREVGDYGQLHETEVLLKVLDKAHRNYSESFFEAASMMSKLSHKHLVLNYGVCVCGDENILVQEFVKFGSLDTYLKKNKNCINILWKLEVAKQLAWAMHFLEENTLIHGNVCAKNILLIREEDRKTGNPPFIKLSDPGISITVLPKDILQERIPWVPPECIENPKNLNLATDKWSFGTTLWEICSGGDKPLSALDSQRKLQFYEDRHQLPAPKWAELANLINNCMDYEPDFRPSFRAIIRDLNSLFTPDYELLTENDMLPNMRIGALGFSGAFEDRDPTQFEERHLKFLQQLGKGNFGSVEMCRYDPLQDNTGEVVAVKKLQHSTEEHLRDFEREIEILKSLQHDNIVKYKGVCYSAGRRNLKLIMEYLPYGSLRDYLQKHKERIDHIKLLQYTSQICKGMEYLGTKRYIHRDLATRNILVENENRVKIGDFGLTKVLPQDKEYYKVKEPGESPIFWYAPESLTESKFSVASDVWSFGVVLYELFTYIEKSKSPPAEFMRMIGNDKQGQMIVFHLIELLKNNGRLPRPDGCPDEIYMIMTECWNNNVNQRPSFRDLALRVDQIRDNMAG
Chain of EPHB2 (P29323 whole entry, looked up): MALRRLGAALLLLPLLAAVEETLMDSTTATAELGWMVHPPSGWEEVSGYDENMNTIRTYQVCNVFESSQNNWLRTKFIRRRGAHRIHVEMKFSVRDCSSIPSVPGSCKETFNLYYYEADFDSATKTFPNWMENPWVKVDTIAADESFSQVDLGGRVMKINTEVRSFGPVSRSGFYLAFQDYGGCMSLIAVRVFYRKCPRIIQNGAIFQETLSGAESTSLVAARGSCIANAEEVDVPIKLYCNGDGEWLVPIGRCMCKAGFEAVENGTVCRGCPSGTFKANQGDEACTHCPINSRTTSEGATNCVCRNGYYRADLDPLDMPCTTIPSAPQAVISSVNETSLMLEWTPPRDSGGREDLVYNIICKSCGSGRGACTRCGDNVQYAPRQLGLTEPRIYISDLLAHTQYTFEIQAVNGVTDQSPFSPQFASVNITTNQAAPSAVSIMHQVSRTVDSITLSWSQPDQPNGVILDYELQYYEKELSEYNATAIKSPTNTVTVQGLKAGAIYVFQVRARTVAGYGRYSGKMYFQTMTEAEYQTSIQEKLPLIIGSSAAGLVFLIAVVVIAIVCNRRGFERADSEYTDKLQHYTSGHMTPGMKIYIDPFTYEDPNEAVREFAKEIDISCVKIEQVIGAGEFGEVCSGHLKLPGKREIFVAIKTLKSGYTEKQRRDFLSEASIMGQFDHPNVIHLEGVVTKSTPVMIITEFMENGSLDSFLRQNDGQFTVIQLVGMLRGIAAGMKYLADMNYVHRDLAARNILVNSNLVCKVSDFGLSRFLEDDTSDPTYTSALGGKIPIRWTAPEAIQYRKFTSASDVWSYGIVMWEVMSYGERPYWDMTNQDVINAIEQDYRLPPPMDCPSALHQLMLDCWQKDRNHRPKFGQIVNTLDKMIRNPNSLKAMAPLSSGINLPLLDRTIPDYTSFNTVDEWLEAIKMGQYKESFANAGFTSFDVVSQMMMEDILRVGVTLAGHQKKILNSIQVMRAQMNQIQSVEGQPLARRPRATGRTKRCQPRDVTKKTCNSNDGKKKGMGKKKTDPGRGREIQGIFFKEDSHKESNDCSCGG

Row | Sequence | phosphorylation enrichment (AncSZ) | phosphorylation enrichment (EPHB1) | phosphorylation enrichment (EPHB2) | phosphorylation enrichment (FGFR1) | phosphorylation enrichment (FGFR3) | phosphorylation enrichment (Fer (mouse)) | phosphorylation enrichment (Fes) | phosphorylation enrichment (Fyn) | phosphorylation enrichment (Hck) | phosphorylation enrichment (Jak2) | phosphorylation enrichment (MERTK) | phosphorylation enrichment (c-Abl (mouse)) | phosphorylation enrichment (c-Src) | SH2 binding enrichment (Grb2 SH2) | SH2 binding enrichment (SHP2-C SH2) | SH2 binding enrichment (c-Src SH2)
1 | PLLEYYRDIFT [CDAN1_Y713] | 1.7 | 1.38 | 1.25 | 6.73 | 5.58 | 1.02 | 1.81 | 0.704 | 0.846 | 4.74 | 0.782 | 1.45 | 0.789 | 1.16 | 0.777 | 1.04
2 | DRFDNYIEKVR [DES_Y122_A120D] | 0.709 | 0.348 | 0.433 | 0.539 | 0.604 | 0.408 | 0.774 | 0.432 | 0.413 | 0.755 | 0.406 | 0.583 | 0.421 | 0.836 | 0.596 | 0.507
3 | EPFEVYRIVPE [IRF8_Y110_K108E_YF] | 1.05 | 0.662 | 0.72 | 1.25 | 1.03 | 0.411 | 1.03 | 3.41 | 2.37 | 0.882 | 0.62 | 0.798 | 3.68 | 0.916 | 0.535 | 0.521
4 | IVEYAYNDKAI [PUM3_Y259] | 1.28 | 0.705 | 0.69 | 0.501 | 0.702 | 0.631 | 1.27 | 0.505 | 0.539 | 1.15 | 0.397 | 0.859 | 0.474 | 0.761 | 0.656 | 0.571
5 | LSSNLYYRWLT [CNGA3_Y168_P163L] | 6.06 | 7.53 | 8.33 | 21.5 | 17.8 | 8.47 | 3.38 | 6.81 | 15.2 | 13.4 | 20.4 | 12.6 | 6.55 | 1.29 | 1.27 | 0.795
6 | MVTSGYKAKTI [EFR3A_Y447] | 0.413 | 0.337 | 0.312 | 0.299 | 0.375 | 0.314 | 0.458 | 0.361 | 0.322 | 0.364 | 0.377 | 0.42 | 0.292 | 0.748 | 0.744 | 0.44
7 | KVKPIYFHTRG [AR_Y916_Q920R] | 0.853 | 0.452 | 0.498 | 0.598 | 0.614 | 0.416 | 0.892 | 0.448 | 0.527 | 0.885 | 0.456 | 0.633 | 0.477 | 2.2 | 2.07 | 1.84
8 | PANMVYSTVEI [SLAMF7_Y304_T302M] | 1.38 | 3.27 | 3.32 | 2.6 | 2.26 | 20.3 | 1.77 | 10.6 | 9.3 | 0.659 | 8.74 | 6.82 | 8.24 | 0.699 | 0.546 | 0.833
9 | QGCSIYKDYYR [PLA2G2D_Y82] | 1.29 | 1.68 | 0.734 | 1.27 | 1.57 | 0.724 | 1.47 | 3.56 | 2.92 | 1.08 | 0.67 | 0.731 | 4.85 | 1.02 | 0.813 | 0.738
10 | RKVLVYDKLNV [ROR2_Y624_N620K] | 0.875 | 1.37 | 0.794 | 0.49 | 0.44 | 1.25 | 0.852 | 1.71 | 10.3 | 0.548 | 2 | 0.854 | 1.82 | 0.906 | 1.09 | 1.44
11 | YEEDSYVERSQ [RET_Y905_K907E] | 1.27 | 0.667 | 0.722 | 0.558 | 0.961 | 0.572 | 1.31 | 0.519 | 0.498 | 1.06 | 0.504 | 0.668 | 0.41 | 0.726 | 0.75 | 1.48
12 | WAMLAYNRSKL [WWOX_Y293] | 1.25 | 0.453 | 0.417 | 0.431 | 0.611 | 0.525 | 1.04 | 0.347 | 0.435 | 1.02 | 0.37 | 0.541 | 0.266 | 1.29 | 1.09 | 0.565
13 | IVFTSYVLTIL [TAS2R16_Y239_F240V] | 1.41 | 0.884 | 0.794 | 0.71 | 1.17 | 0.731 | 1.73 | 0.667 | 0.623 | 1.55 | 0.526 | 1.05 | 0.55 | 1.04 | 0.641 | 0.806
14 | LGSNTYPFLLM [SAG_Y120_T125M] | 1.12 | 0.835 | 0.783 | 1.91 | 1.86 | 0.646 | 1.73 | 0.384 | 0.492 | 1.31 | 0.36 | 1.05 | 0.713 | 0.808 | 0.435 | 0.427
15 | NIFSFYLSRDP [CTSD_Y232] | 0.85 | 0.551 | 0.506 | 0.348 | 0.697 | 0.528 | 1.14 | 0.4 | 0.461 | 0.951 | 0.333 | 0.619 | 0.409 | 1.52 | 1.64 | 1.09
16 | NLNGKYNKPRA [ANGPTL3_Y417] | 0.51 | 0.294 | 0.353 | 0.344 | 0.525 | 0.372 | 0.613 | 0.659 | 0.362 | 0.8 | 0.471 | 0.696 | 0.334 | 1.3 | 0.875 | 1.18
17 | LARHMYDKEYY [MET_Y1230_D1228H] | 1.17 | 0.693 | 0.811 | 0.799 | 0.813 | 0.671 | 0.933 | 0.638 | 0.825 | 0.883 | 0.597 | 0.687 | 0.73 | 1.25 | 1.43 | 1.15
18 | VDGSLYKTHPQ [HK1_Y417] | 0.472 | 0.436 | 0.389 | 0.338 | 0.419 | 0.421 | 0.556 | 0.44 | 0.365 | 0.409 | 0.378 | 0.425 | 0.385 | 0.765 | 0.596 | 0.465
19 | TLDTDYQMTKR [ADA_Y308] | 0.77 | 0.45 | 0.504 | 0.462 | 0.584 | 0.697 | 0.781 | 0.483 | 0.445 | 0.632 | 0.363 | 0.499 | 0.35 | 0.92 | 0.597 | 0.558
20 | FPLELYERVRI [PRKCG_Y312_M317I_YF] | 1.34 | 1.66 | 1.1 | 0.498 | 0.652 | 3.28 | 1.29 | 0.48 | 1.18 | 1.39 | 0.453 | 0.739 | 0.528 | 0.854 | 0.775 | 0.567
21 | VQVAYYTVMMN [SPATA17_Y84_M86V] | 1.79 | 2.88 | 1.47 | 5.77 | 4.41 | 1.97 | 1.71 | 1.7 | 1.69 | 3.06 | 4.41 | 1.01 | 2.03 | 1.63 | 0.952 | 1.93
22 | CTTIHKNFMCN [TP53_Y234_Y234K_YF] | 0.831 | 0.394 | 0.53 | 0.486 | 0.585 | 0.453 | 0.699 | 0.409 | 0.405 | 0.553 | 0.42 | 0.49 | 0.448 | 1.1 | 0.795 | 0.653
23 | MEYLPYGSLRD [JAK2_Y934] | 1.45 | 2.63 | 1.41 | 1.15 | 1.02 | 1.25 | 1.26 | 4.56 | 5.07 | 1.41 | 0.511 | 1.02 | 4.9 | 0.723 | 1.19 | 0.498
24 | TGQEEYSAMRD [KRAS_Y64_A59T] | 1.08 | 0.789 | 0.536 | 0.538 | 0.63 | 0.462 | 1 | 0.519 | 0.563 | 0.821 | 0.475 | 0.642 | 0.525 | 0.838 | 0.704 | 0.639
25 | LDFNEYVRDLN [HPRT1_Y198_F199V_YF] | 1.69 | 0.804 | 0.665 | 0.532 | 0.628 | 0.634 | 1.47 | 0.674 | 0.707 | 1.31 | 0.556 | 0.911 | 0.567 | 1.13 | 0.795 | 0.617
26 | VFLGAYDCFLP [SLC22A5_Y486_R488C_YF] | 1.6 | 2.6 | 4.47 | 0.631 | 0.757 | 4.68 | 1.28 | 5.7 | 3.27 | 1.17 | 5.67 | 0.953 | 4.75 | 0.947 | 0.749 | 0.951
27 | HELYVYKCDEN [DOCK3_Y548] | 1.48 | 0.762 | 0.862 | 0.957 | 1.05 | 0.719 | 1.19 | 0.761 | 0.99 | 1.29 | 0.549 | 0.6 | 1.38 | 1.03 | 0.939 | 0.796
28 | TPGPNYRPGFN [USH2A_Y463_YF] | 0.707 | 0.531 | 0.436 | 0.647 | 0.646 | 0.498 | 0.716 | 0.536 | 0.586 | 0.675 | 0.87 | 0.576 | 0.452 | 0.776 | 0.505 | 0.416
29 | RSFLSYFTSHV [NEFL_Y442_P440L_YF] | 1.54 | 0.759 | 0.743 | 0.752 | 1 | 0.677 | 1.8 | 0.642 | 0.915 | 1.1 | 0.826 | 1.05 | 0.879 | 0.893 | 1.3 | 0.697
